Measured values taken from patent US20170306033A1 (Amgen, published 2017).
Where a chain is given by its changes, count along the chain named.

T1: human PAC1 receptor (human, UniProt P41586 21-468)
T1 sequence: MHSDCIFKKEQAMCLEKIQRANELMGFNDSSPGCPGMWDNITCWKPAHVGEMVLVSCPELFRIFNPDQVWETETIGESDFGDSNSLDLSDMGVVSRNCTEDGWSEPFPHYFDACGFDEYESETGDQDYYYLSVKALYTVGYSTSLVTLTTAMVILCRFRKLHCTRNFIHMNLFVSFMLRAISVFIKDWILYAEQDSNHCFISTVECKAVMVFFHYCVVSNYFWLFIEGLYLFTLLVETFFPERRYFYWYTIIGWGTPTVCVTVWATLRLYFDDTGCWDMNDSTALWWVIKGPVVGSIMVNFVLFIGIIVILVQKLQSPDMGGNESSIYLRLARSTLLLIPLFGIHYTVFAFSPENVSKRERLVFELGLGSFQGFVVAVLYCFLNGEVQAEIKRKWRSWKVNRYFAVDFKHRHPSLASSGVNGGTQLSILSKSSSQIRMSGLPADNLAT

B1: iPS:328001 (bispecific antibody, human IgG2, kappa, lambda)
light 1: EIVLTQSPATLSLSPGERATLSCRASQSVGRSLHWYQQKPGQAPRLLIKYASQSLSGIPARFSGSGSGTDFTLTISSLEPEDFAVYYCHQSSRLPFTFGPGTKVDIKRTVAAPSVFIFPPSDEQLKSGTASVVCLLNNFYPREAKVQWKVDNALQSGNSQESVTEQDSKDSTYSLESTLTLSKADYEKHKVYACEVTHQGLSSPVTKSFNRGEC
heavy 1: QVQLVESGGGVVQPGRSLRLSCAASGFTFSRFAMHWVRQAPGKGLEWVAVISYDGGNKYYAESVKGRFTISRDNSKNTLYLQMNSLRAEDTALFYCARGYDVLTGYPDYWGQGTLVTVSSASTKGPSVFPLAPCSRSTSESTAALGCLVKDYFPEPVTVSWNSGALTSGVHTFPAVLQSSGLYSLKSVVTVPSSNFGTQTYTCNVDHKPSNTKVDKTVERKCCVECPPCPAPPVAGPSVFLFPPKPKDTLMISRTPEVTCVVVDVSHEDPEVQFNWYVDGVEVHNAKTKPREEQFNSTFRVVSVLTVVHQDWLNGKEYKCKVSNKGLPAPIEKTISKTKGQPREPQVYTLPPSREEMTKNQVSLTCLVDGFYPSDIAVEWESNGQPENNYDTTPPMLDSDGSFFLYSDLTVDKSRWQQGNVFSCSVMHEALHNHYTQKSLSLSPGK
light 2: QSVLTQPPSVSAAPGQKVTISCSGSSSNIGNNYVSWYQQLPGTAPKLLIYDNNKRPSGIPDRFSGSKSGTSTTLGITGLQTGDEADYYCGTWDSRLSAVVFGGGTKLTVLGQPKANPTVTLFPPSSEELQANKATLVCLISDFYPGAVTVAWKADGSPVKAGVETTKPSKQSNNKYAAKSYLSLTPEQWKSHRSYSCQVTHEGSTVEKTVAPTECS
heavy 2: QVQLVESGGGVVQPGRSLRLSCAASGFTFSSFGMHWVRQAPGKGLEWVAVISFDGSIKYSVDSVKGRFTISRDNSKNTLFLQMNSLRAEDTAVYYCARDRLNYYDSSGYYHYKYYGMAVWGQGTTVTVSSASTKGPSVFPLAPCSRSTSESTAALGCLVKDYFPEPVTVSWNSGALTSGVHTFPAVLQSSGLYSLESVVTVPSSNFGTQTYTCNVDHKPSNTKVDKTVERKCCVECPPCPAPPVAGPSVFLFPPKPKDTLMISRTPEVTCVVVDVSHEDPEVQFNWYVDGVEVHNAKTKPREEQFNSTFRVVSVLTVVHQDWLNGKEYKCKVSNKGLPAPIEKTISKTKGQPREPQVYTLPPSRKKMTKNQVSLTCLVKGFYPSDIAVEWESNGQPENNYKTTPPMLKSDGSFFLYSKLTVDKSRWQQGNVFSCSVMHEALHNHYTQKSLSLSPGK
B2: iPS:327705 (bispecific antibody, human IgG1, kappa, lambda, N297G)
light 1: DIQLTQSPSFLSASVGDRVTITCRASQSIGRSLHWYQQKPGKAPKLLIKYASQSLSGVPSRFSGSGSGTEFTLTISSLQPEDFATYYCHQSSRLPFTFGPGTKVDIKRTVAAPSVFIFPPSDEQLKSGTASVVCLLNNFYPREAKVQWKVDNALQSGNSQESVTEQDSKDSTYSLESTLTLSKADYEKHKVYACEVTHQGLSSPVTKSFNRGEC
heavy 1: not shown
light 2: B1 light 2 with T72A
heavy 2: QVQLVESGGGVVQPGRSLRLSCAASGFTFSSFGMHWVRQAPGKGLEWVAVISFDGSIKYSVDSVKGRFTISRDNSKNTLFLQMNSLRAEDTAVYYCARDRLNYYDSSGYYHYKYYGMAVWGQGTTVTVSSASTKGPSVFPLAPSSKSTSGGTAALGCLVKDYFPEPVTVSWNSGALTSGVHTFPAVLQSSGLYSLESVVTVPSSSLGTQTYICNVNHKPSNTKVDKKVEPKSCDKTHTCPPCPAPELLGGPSVFLFPPKPKDTLMISRTPEVTCVVVDVSHEDPEVKFNWYVDGVEVHNAKTKPCEEQYGSTYRCVSVLTVLHQDWLNGKEYKCKVSNKALPAPIEKTISKAKGQPREPQVYTLPPSRKEMTKNQVSLTCLVKGFYPSDIAVEWESNGQPENNYKTTPPVLKSDGSFFLYSKLTVDKSRWQQGNVFSCSVMHEALHNHYTQKSLSLSPGK
B3: iPS:327694 (bispecific antibody, human IgG1, kappa, lambda, N297G)
light 1: DIQMTQSPSSLSASVGDRITITCRASQSISRYLNWYQQKPGKAPKLLIYAASSLQSGIPSRFSGSGSGTDFTLTINSLQPEDFATYFCQQSYSPPFTFGEGTKVDIKRTVAAPSVFIFPPSDEQLKSGTASVVCLLNNFYPREAKVQWKVDNALQSGNSQESVTEQDSKDSTYSLESTLTLSKADYEKHKVYACEVTHQGLSSPVTKSFNRGEC
heavy 1: not shown
light 2: B1 light 2 with G103K
heavy 2: B2 heavy 2 with G44E, D105E
B4: iPS:327696 (bispecific antibody, human IgG1, kappa, lambda, N297G)
light 1: not shown
heavy 1: not shown
light 2: B1 light 2 with G103K
heavy 2: B2 heavy 2 with G44E, D105E
B5: iPS:327690 (bispecific antibody, human IgG1, kappa, lambda, N297G)
light 1: not shown
heavy 1: not shown
light 2: B1 light 2
heavy 2: B2 heavy 2 with D105E
B6: iPS:327706 (bispecific antibody, human IgG1, kappa, lambda, N297G)
light 1: B1 light 1
heavy 1: not shown
light 2: B1 light 2 with T72A
heavy 2: B2 heavy 2
B7: iPS:327693 (bispecific antibody, human IgG1, kappa, lambda, N297G)
light 1: B1 light 1
heavy 1: not shown
light 2: B1 light 2
heavy 2: B2 heavy 2 with D105E
B8: iPS:327691 (bispecific antibody, human IgG1, kappa, lambda, N297G)
light 1: B2 light 1
heavy 1: not shown
light 2: B1 light 2
heavy 2: B2 heavy 2 with D105E
B9: iPS:327688 (bispecific antibody, human IgG1, kappa, N297G)
light 1: B1 light 1
heavy 1: not shown
light 2: EIVLTQSPGTLSLSPGERATLSCRASQSVSSGYLTWYQQKPGQAPRLLIYGASSRATGIPDRFSGSGSGTDFTLTISRLEPEDFAVYYCQQYGNSLSRFGQGTKLEIKRTVAAPSVFIFPPSDEQLKSGTASVVCLLNNFYPREAKVQWKVDNALQSGNSQESVTEQDSKDSTYSLKSTLTLSKADYEKHKVYACEVTHQGLSSPVTKSFNRGEC
heavy 2: not shown
B10: iPS:327687 (bispecific antibody, human IgG1, kappa, N297G)
light 1: B2 light 1
heavy 1: not shown
light 2: B9 light 2
heavy 2: not shown

What follows are binders tested against T1, human PAC1 receptor (assay: cell-based or functional assay).

| % inhibition of human PAC1 | Binder |
| --- | --- |
| 95% | B1 |
| 56% | B2 |
| 75% | B3 |
| 10% | B4 |
| 50% | B5 |
| 103% | B6 |
| 82% | B7 |
| 25% | B8 |
| 103% | B9 |
| 62% | B10 |

These binders were tested against human CGRP receptor (human, UniProt Q16602 23-461; O60894 27-148) (assay: cell-based or functional assay).
human CGRP receptor, sequence (Q16602 23-461 limits assumed, chain 1 of 2): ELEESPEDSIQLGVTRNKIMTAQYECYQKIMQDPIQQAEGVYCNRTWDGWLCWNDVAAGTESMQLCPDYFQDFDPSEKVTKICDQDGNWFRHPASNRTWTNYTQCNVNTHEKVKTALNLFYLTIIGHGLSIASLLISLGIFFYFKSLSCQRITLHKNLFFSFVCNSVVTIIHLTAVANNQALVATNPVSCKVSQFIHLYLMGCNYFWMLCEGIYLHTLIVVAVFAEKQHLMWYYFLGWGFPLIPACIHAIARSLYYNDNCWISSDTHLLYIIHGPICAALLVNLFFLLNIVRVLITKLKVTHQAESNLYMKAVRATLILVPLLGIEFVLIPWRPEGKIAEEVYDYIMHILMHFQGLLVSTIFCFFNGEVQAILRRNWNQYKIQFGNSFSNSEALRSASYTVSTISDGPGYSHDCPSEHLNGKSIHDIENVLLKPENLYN
human CGRP receptor, sequence (O60894 27-148 limits assumed, chain 2 of 2): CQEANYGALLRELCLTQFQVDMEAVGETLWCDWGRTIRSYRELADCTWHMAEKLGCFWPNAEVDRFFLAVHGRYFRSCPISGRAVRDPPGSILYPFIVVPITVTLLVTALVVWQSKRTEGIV

| % inhibition of human CGRPR | Binder |
| --- | --- |
| 65% | B1 |
| 88% | B2 |
| 87% | B3 |
| 87% | B4 |
| 80% | B5 |
| 87% | B6 |
| 76% | B7 |
| 73% | B8 |
| 89% | B9 |
| 91% | B10 |
